Reference: paper PMC10397247

Columns and labels:
4H4001-bH = molecular target: T1, 4H4001-bH; test: two-hybrid library CCNG1;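 also: natural log of median RNA to DNA barcode read ratio; higher means stronger binding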
T1 chain: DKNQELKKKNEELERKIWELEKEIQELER

4H687-bH = molecular target: T2, 4H687-bH; test: two-hybrid library CCNG1;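 also: natural log of median RNA to DNA barcode read ratio; higher means stronger binding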
T2 chain: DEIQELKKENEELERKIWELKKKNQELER

4H918-bH = molecular target: T3, 4H918-bH; test: two-hybrid library CCNG1;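 also: natural log of median RNA to DNA barcode read ratio; higher means stronger binding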
T3 chain: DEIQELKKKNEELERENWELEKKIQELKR

4H967-bH = molecular target: T4, 4H967-bH; test: two-hybrid library CCNG1;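 also: natural log of median RNA to DNA barcode read ratio; higher means stronger binding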
T4 chain: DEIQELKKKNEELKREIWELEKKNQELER

4H883-bH = molecular target: T5, 4H883-bH; test: two-hybrid library CCNG1;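 also: natural log of median RNA to DNA barcode read ratio; higher means stronger binding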
T5 chain: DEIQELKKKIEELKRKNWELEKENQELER

4H3855-bA = molecular target: T6, 4H3855-bA; test: two-hybrid library CCNG1;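 also: natural log of median RNA to DNA barcode read ratio; higher means stronger binding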
T6 chain: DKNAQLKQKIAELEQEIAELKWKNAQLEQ

4H568-bH = molecular target: T7, 4H568-bH; test: two-hybrid library CCNG1
T7 chain: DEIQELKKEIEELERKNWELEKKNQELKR

4H3843-bH = molecular target: T8, 4H3843-bH; test: two-hybrid library CCNG1
T8 chain: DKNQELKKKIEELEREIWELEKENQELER

4H462-bH = molecular target: T9, 4H462-bH; test: two-hybrid library CCNG1
T9 chain: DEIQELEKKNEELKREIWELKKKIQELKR

4H607-bH = molecular target: T10, 4H607-bH; test: two-hybrid library CCNG1
T10 chain: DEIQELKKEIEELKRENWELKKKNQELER

4H953-bH = molecular target: T11, 4H953-bH; test: two-hybrid library CCNG1
T11 chain: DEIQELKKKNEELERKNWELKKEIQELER

4H797-bH = molecular target: T12, 4H797-bH; test: two-hybrid library CCNG1
T12 chain: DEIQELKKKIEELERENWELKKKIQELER

4H72-bH = molecular target: T13, 4H72-bH; test: two-hybrid library CCNG1
T13 chain: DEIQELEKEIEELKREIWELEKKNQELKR

O8-bH = molecular target: T14, O8-bH; test: two-hybrid library CCNG1
T14 chain: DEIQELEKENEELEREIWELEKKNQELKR

O9-bH = molecular target: T15, O9-bH; test: two-hybrid library CCNG1
T15 chain: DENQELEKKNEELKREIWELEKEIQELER

4H94-AA = molecular target: T16, 4H94-AA; test: two-hybrid library CCmax; conditions: mean of both orientations
T16 chain: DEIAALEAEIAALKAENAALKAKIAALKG

4H3016-AA = molecular target: T17, 4H3016-AA; test: two-hybrid library CCmax; conditions: mean of both orientations
T17 chain: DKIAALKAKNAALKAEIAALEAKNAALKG

4H2389-AA = molecular target: T18, 4H2389-AA; test: two-hybrid library CCmax; conditions: mean of both orientations
T18 chain: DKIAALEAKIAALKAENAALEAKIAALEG

4H2473-AA = molecular target: T19, 4H2473-AA; test: two-hybrid library CCmax; conditions: mean of both orientations
T19 chain: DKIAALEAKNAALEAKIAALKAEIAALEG

4H850-AA = molecular target: T20, 4H850-AA; test: two-hybrid library CCmax; conditions: mean of both orientations
T20 chain: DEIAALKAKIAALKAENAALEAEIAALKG

4H310-AA = molecular target: T21, 4H310-AA; test: two-hybrid library CCmax; conditions: mean of both orientations
T21 chain: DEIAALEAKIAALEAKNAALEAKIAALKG

4H2330-AA = molecular target: T22, 4H2330-AA; test: two-hybrid library CCmax; conditions: mean of both orientations
T22 chain: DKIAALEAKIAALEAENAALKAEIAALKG

4H3410-AA = molecular target: T23, 4H3410-AA; test: two-hybrid library CCmax; conditions: mean of both orientations
T23 chain: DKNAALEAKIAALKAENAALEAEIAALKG

4H3590-AA = molecular target: T24, 4H3590-AA; test: two-hybrid library CCmax; conditions: mean of both orientations
T24 chain: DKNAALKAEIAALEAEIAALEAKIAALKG

4H2277-AA = molecular target: T25, 4H2277-AA; test: two-hybrid library CCmax
T25 chain: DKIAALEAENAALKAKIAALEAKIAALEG

4H891-AA = molecular target: T26, 4H891-AA; test: two-hybrid library CCmax; conditions: mean of both orientations
T26 chain: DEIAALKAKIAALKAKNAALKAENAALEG

4H930-AA = molecular target: T27, 4H930-AA; test: two-hybrid library CCmax; conditions: mean of both orientations
T27 chain: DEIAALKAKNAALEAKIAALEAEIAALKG

4H2649-AA = molecular target: T28, 4H2649-AA; test: two-hybrid library CCmax; conditions: mean of both orientations
T28 chain: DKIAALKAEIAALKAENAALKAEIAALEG

4H2438-AA = molecular target: T29, 4H2438-AA; test: two-hybrid library CCmax; conditions: mean of both orientations
T29 chain: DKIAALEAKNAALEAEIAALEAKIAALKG

4H2698-AA = molecular target: T30, 4H2698-AA; test: two-hybrid library CCmax; conditions: mean of both orientations
T30 chain: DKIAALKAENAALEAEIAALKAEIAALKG

4H3697-AA = molecular target: T31, 4H3697-AA; test: two-hybrid library CCmax; conditions: mean of both orientations
T31 chain: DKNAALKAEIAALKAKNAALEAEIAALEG

4H485-AA = molecular target: T32, 4H485-AA; test: two-hybrid library CCmax; conditions: mean of both orientations
T32 chain: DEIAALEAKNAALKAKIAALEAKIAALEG

4H536-AA = molecular target: T33, 4H536-AA; test: two-hybrid library CCmax; conditions: mean of both orientations
T33 chain: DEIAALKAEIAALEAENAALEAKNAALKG

4H3381-AA = molecular target: T34, 4H3381-AA; test: two-hybrid library CCmax; conditions: mean of both orientations
T34 chain: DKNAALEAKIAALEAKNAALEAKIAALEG

4H3130-AA = molecular target: T35, 4H3130-AA; test: two-hybrid library CCmax; conditions: mean of both orientations
T35 chain: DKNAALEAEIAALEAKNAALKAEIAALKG

4H797-AA = molecular target: T36, 4H797-AA; test: two-hybrid library CCmax; conditions: mean of both orientations
T36 chain: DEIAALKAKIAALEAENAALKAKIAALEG

4H3753-AA = molecular target: T37, 4H3753-AA; test: two-hybrid library CCmax; conditions: mean of both orientations
T37 chain: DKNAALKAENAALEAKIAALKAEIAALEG

4H629-AA = molecular target: T38, 4H629-AA; test: two-hybrid library CCmax; conditions: mean of both orientations
T38 chain: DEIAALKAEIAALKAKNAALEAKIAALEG

4H3395-AA = molecular target: T39, 4H3395-AA; test: two-hybrid library CCmax; conditions: mean of both orientations
T39 chain: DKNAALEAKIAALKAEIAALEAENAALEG

4H2865-AA = molecular target: T40, 4H2865-AA; test: two-hybrid library CCmax; conditions: mean of both orientations
T40 chain: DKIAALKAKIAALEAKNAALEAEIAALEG

4H570-AA = molecular target: T41, 4H570-AA; test: two-hybrid library CCmax; conditions: mean of both orientations
T41 chain: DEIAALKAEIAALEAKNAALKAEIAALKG

4H3865-AA = molecular target: T42, 4H3865-AA; test: two-hybrid library CCmax; conditions: mean of both orientations
T42 chain: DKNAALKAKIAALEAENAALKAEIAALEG

4H2725-AA = molecular target: T43, 4H2725-AA; test: two-hybrid library CCmax; conditions: mean of both orientations
T43 chain: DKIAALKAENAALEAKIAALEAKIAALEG

4H458-AA = molecular target: T44, 4H458-AA; test: two-hybrid library CCmax; conditions: mean of both orientations
T44 chain: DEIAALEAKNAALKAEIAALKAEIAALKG

4H2274-AA = molecular target: T45, 4H2274-AA; test: two-hybrid library CCmax
T45 chain: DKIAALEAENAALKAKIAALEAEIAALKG

4H3120-AA = molecular target: T46, 4H3120-AA; test: two-hybrid library CCmax; conditions: mean of both orientations
T46 chain: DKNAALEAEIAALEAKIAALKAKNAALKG

4H3165-AA = molecular target: T47, 4H3165-AA; test: two-hybrid library CCmax; conditions: mean of both orientations
T47 chain: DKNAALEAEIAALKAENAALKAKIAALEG

4H3009-AA = molecular target: T48, 4H3009-AA; test: two-hybrid library CCmax; conditions: mean of both orientations
T48 chain: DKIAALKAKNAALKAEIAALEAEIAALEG

4H909-AA = molecular target: T49, 4H909-AA; test: two-hybrid library CCmax; conditions: mean of both orientations
T49 chain: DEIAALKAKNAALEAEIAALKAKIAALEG

4H710-AA = molecular target: T50, 4H710-AA; test: two-hybrid library CCmax; conditions: mean of both orientations
T50 chain: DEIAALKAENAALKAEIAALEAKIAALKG

4H745-AA = molecular target: T51, 4H745-AA; test: two-hybrid library CCmax; conditions: mean of both orientations
T51 chain: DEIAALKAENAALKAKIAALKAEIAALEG

Question: What does the source list for DKNQELKKKIEELEREIWELEKENQELER [4H3843-bH]?
Answer: interaction score (4H4001-bH): -0.099; interaction score (4H687-bH): -0.585; interaction score (4H918-bH): -2.64; interaction score (4H967-bH): -0.0277; interaction score (4H883-bH): -0.346; interaction score (4H3855-bA): 1.29; interaction score (4H568-bH): -1.1; interaction score (4H3843-bH): -0.634; interaction score (4H462-bH): -0.193; interaction score (4H607-bH): -2.13; interaction score (4H953-bH): -0.885; interaction score (4H797-bH): -0.437; interaction score (4H72-bH): -0.557

Question: What does the source list for DEIQELEKENEELEREIWELEKKNQELKR [O8-bH]?
Answer: interaction score (O8-bH): 0.991; interaction score (O9-bH): 0.486

Question: Which interaction score (4H94-AA) does the source give for DKIAALEAENAALKAKIAALEAEIAALKG [4H2274-AA] here?
Answer: Its interaction score is -1.32.

Question: And the interaction score (4H3016-AA)?
Answer: The interaction score was -1.01.

Question: And the interaction score (4H2389-AA)?
Answer: Its interaction score is -0.987.

Question: And the interaction score (4H2473-AA)?
Answer: Its interaction score is -0.485.

Question: What about the interaction score (4H850-AA) of the same binder?
Answer: The interaction score was -1.39.

Question: And the interaction score (4H310-AA)?
Answer: Its interaction score is -1.25.

Question: And the interaction score (4H2330-AA)?
Answer: The interaction score was -1.13.

Question: What about the interaction score (4H3410-AA) of the same binder?
Answer: Its interaction score is -1.36.

Question: And the interaction score (4H3590-AA)?
Answer: Its interaction score is -0.977.

Question: What about the interaction score (4H2277-AA) of the same binder?
Answer: Its interaction score is 0.21.

Question: And the interaction score (4H891-AA)?
Answer: The interaction score was -1.73.

Question: And the interaction score (4H930-AA)?
Answer: The interaction score was -1.05.

Question: What about the interaction score (4H2649-AA) of the same binder?
Answer: Its interaction score is -1.69.

Question: And the interaction score (4H2438-AA)?
Answer: Its interaction score is 0.189.

Question: What about the interaction score (4H2698-AA) of the same binder?
Answer: Its interaction score is 0.894.

Question: What about the interaction score (4H3697-AA) of the same binder?
Answer: Its interaction score is -1.45.

Question: What about the interaction score (4H485-AA) of the same binder?
Answer: Its interaction score is -0.34.

Question: What about the interaction score (4H536-AA) of the same binder?
Answer: Its interaction score is -1.54.

Question: And the interaction score (4H3381-AA)?
Answer: Its interaction score is -1.35.

Question: What about the interaction score (4H3130-AA) of the same binder?
Answer: The interaction score was -1.87.

Question: And the interaction score (4H797-AA)?
Answer: The interaction score was -1.27.

Question: What about the interaction score (4H3753-AA) of the same binder?
Answer: Its interaction score is -1.17.

Question: And the interaction score (4H629-AA)?
Answer: The interaction score was -1.47.

Question: What about the interaction score (4H3395-AA) of the same binder?
Answer: The interaction score was -1.6.

Question: What about the interaction score (4H2865-AA) of the same binder?
Answer: Its interaction score is -1.31.

Question: And the interaction score (4H570-AA)?
Answer: The interaction score was -1.8.

Question: And the interaction score (4H3865-AA)?
Answer: The interaction score was -0.926.

Question: And the interaction score (4H2725-AA)?
Answer: Its interaction score is 0.181.

Question: What about the interaction score (4H458-AA) of the same binder?
Answer: The interaction score was 0.0218.

Question: What about the interaction score (4H2274-AA) of the same binder?
Answer: Its interaction score is 2.45.

Question: What about the interaction score (4H3120-AA) of the same binder?
Answer: The interaction score was -1.33.

Question: And the interaction score (4H3165-AA)?
Answer: The interaction score was -1.19.

Question: And the interaction score (4H3009-AA)?
Answer: The interaction score was 0.108.

Question: What about the interaction score (4H909-AA) of the same binder?
Answer: Its interaction score is -1.73.

Question: What about the interaction score (4H710-AA) of the same binder?
Answer: Its interaction score is 0.53.

Question: What about the interaction score (4H745-AA) of the same binder?
Answer: The interaction score was 0.497.
